Series [1] in a line: 1-AMA fluorescence binding assay in buffer. Conditions: 50 mM Tris-HCl pH 7.5 buffer, 37° C., 1 μM protein, 1-AMA ligand, Ka from Kd=1/Ka, mean of 2 independent experiments. The protocol: (§1) In an embodiment, the pure odorant-binding protein was lyophilized and used in further procedures. To determine the affinity of the odorant-binding protein to odour molecules, 1-aminoanthracene (1-AMA) was used as an odour model molecule. Increased concentrations of fluorescent ligand model 1-aminoanthracene (1-AMA) were added to 1 μM of protein, and the formation of ligand/protein complex was quantified after 1 h at 37° C. by fluorescence emission at 481 nm (excitation at 295 nm).^30 Dissociation constant (Kd) was determined from a plot of fluorescence intensity versus concentration of ligand, obtained with a standard non-linear regression method, described in Malpeli et al. (1998).^31 The affinity behaviour of protein in presence of sweat solution was performed through a competitive fluorescence assay. Here, 1 μM of protein was mixed with 2 μM of 1-AMA and incubated at 37° C. for 1 h. After this period, increased volumes of sweat solution were added to the complex and incubated at same conditions.
(§2) In a further embodiment, fluorescence emission at 481 nm (excitation at 295 nm) was recorded and the dissociation constant (Kd) calculated. The association constant (Ka) was calculated by formula Kd=1/Ka.

Series [2] is described as follows: Competitive fluorescence assay with sweat solution added to 1-AMA/protein complex. Conditions: 37° C.; for Ka in sweat (affinity/association constant): sweat solution (AATCC 15-2009, pH 4.0-8.5), 1 μM protein + 2 μM 1-AMA, mean of 2 independent experiments. The format is binding. The protocol:
as §1
In an embodiment, the sweat solution was prepared as indicated in AATCC method 15-2009 “Colorfastness to Perspiration”. The pH of the prepared solution varied between 4.0 and 8.5. In accordance with its composition, the sweat solution is also regarded as electrolyte solution.
as §2

The conditions of series [3]: cited from earlier work.
A short description of series [4]: Fragrance release quantified by headspace GC-MS after adding sweat solution. Particulars: for Odorific molecules released in response to human perspiration, compared with other fusion proteins based on porcine OBP: sweat pH 4.0-8.5. On the procedure:
In an embodiment, the release of fragrance was quantified by gas chromatography-mass spectrometry (GC-MS). Increased concentrations of fragrance were used in different vials and the fragrance in headspace quantified performing the calibration curve (area of peak vs fragrance concentration). The fragrance was incubated with the odorant-binding protein at 37° C. Sweat solution was added and the fragrance release determined after several periods of time (0.5-24 h) of perspiration exposition.

For series [5] the following is noted: particularly in the presence of a ligand; cited from earlier work.
Setting [6] is: listed as Native porcine OBP (OBP-I).

Where only a bound is given, the exact number is not on record here.

Consider 3 molecules from patent US12329841B2, “Odorant-binding protein compositions, methods and uses thereof” (Universidade do Minho, priority 2020, dated 2025).

B1: OBP::GQ20::CBM: Recombinant pig OBP fused with spacer GQ20 and carbohydrate-binding module; comparative data, SEQ ID NO. 22 (protein)
chain: QEPQPEQDPFELSGKWITSYIGSSDLEKIGENAPFQVFMRSIEFDDKESKVYLNFFSKENGICEEFSLIGTKQEGNTYDVNYAGNNKFVVSYASETALIISNINVDEEGDKTIMTGLLGKGTDIEDQDLEKFKEVTRENGIPEENIVNIIERDDCPAGQGQGQGQGQGQGQGQGQGQGQGQGQGQGQGQGQGQGQGQASPIGEGTFDDGPEGWVAYGTDGPLDTSTGALCVAVPAGSAQYGVGVVLNGVAIEEGTTYTLRYTATASTDVTVRALVGQNGAPYGTVLDTSPALTSEPRQVTETFTASATYPATPAADDPEGQIAFQLGGFSADAWTLCLDDVALDSEVEL
modifications: OBP::GQ20::CBM (recombinant protein)
In turn, B1 showed a Ka in buffer (affinity/association constant) in series [1] of 4.17 µM⁻¹. Besides, in series [2], the “Reduction of affinity on addition of sweat solution (Ka buffer vs Ka sweat)” value (“Reduction of affinity” for short) is 1.3 × and the Ka in sweat (affinity/association constant) is 3.16 µM⁻¹. Also, the “Release of fragrance in presence of sweat, value reported in state of art (ref. 25)” value in series [3] is 1.3 ×.

B2: OBP::GQ20::KP: Recombinant pig OBP fused with linker GQ 20× and KP peptide, SEQ ID NO. 21 (protein)
chain: QEPQPEQDPFELSGKWITSYIGSSDLEKIGENAPFQVFMRSIEFDDKESKVYLNFFSKENGICEEFSLIGTKQEGNTYDVNYAGNNKFVVSYASETALIISNINVDEEGDKTIMTGLLGKGTDIEDQDLEKFKEVTRENGIPEENIVNIIERDDCPAGQGQGQGQGQGQGQGQGQGQGQGQGQGQGQGQGQGQGQGQGGVCGPSPPCITT
modifications: OBP::GQ20::KP (recombinant protein)
Molecule B2 returned a Ka in buffer (affinity/association constant) in series [1] of 4 µM⁻¹. In series [2], the “Reduction of affinity” value is listed as 6.8 × and the Ka in sweat (affinity/association constant) was 0.59 µM⁻¹. Further, the “Odorific molecules released in response to human perspiration, compared with other fusion proteins based on porcine OBP” value in series [4] is reported as greater than 6.8 ×. Further, in series [4] (sweat versus buffer), the “More fragrance release in presence of sweat versus presence of buffer” value came to 6.8 ×.

B3: OBP-I: Native porcine (pig) odorant-binding protein, PDB ID 1DZK, SEQ ID NO. 1 (protein, listed as Sus scrofa)
chain: QEPQPEQDPFELSGKWITSYIGSSDLEKIGENAPFQVFMRSIEFDDKESKVYLNFFSKENGICEEFSLIGTKQEGNTYDVNYAGNNKFVVSYASETALIISNINVDEEGDKTIMTGLLGKGTDIEDQDLEKFKEVTRENGIPEENIVNIIERDDCPA
modifications: Pig OBP (PDB ID 1DZK)
For the molecule B3, the Ka in buffer (affinity/association constant) in series [1], in series [1] (listed as Native OBP-I) and in series [1] (setting [6]) was 4 ± 0.03 µM⁻¹ each time. Besides, in series [2], the “Reduction of affinity” value is 20 ×. For the same molecule, the Ka in sweat (affinity/association constant) is 0.2 µM⁻¹ in series [2], 0.2 ± 0.02 µM⁻¹ in series [2] (listed as Native OBP-I) and 0.2 ± 0.02 µM⁻¹ in series [2] (setting [6]). In addition, the “Odorific molecules released in response to human perspiration, compared with other fusion proteins based on porcine OBP” value in series [4] is “more than 20 ×”. For the same molecule, the “Structure stable to thermal denaturation up to (FT-IR)” value in series [5] is “up to 80 °C”.
